Results reported in patent US11001846B2, “Aptamers, nucleic acid molecules, polynucleotides, synthetic antibodies compositions for detecting PRRS viruses and treating PRRS virus infection” (AEROVIRUS TECHNOLOGIES INC., priority 2015, dated 2021).
Entries after “also recorded” stand apart in the source; their conditions may differ.

How the values were obtained:
[1] = tested on: M-S-S-GP5 peptidic complex; experiment: ELISA reverse screening: binding to M-S-S-GP5 peptidic complex, type 2; settings: type 2 PRRSV complex
Protocol: ssDNA aptamers were denatured at 80° C. for 10 min and then cooled on ice for 10 min. Aptamers (30 nmole) were mixed with 25 μg of M-S-S-GP5 peptidic complex (further described in Example 6 below) in 500 μl selection buffer (50 mM Tris-HCl; pH 7.4, 5 mM KCl, 100 mM NaCl, 1 mM MgCl2 tRNA, 0.2% BSA) at 37° C. for 30 min. Aptamer-peptide complex was purified by adding the 25 μl Ni-NTA superflow and amplified by PCR using primers directed to the common T3 sequences in the aptamer library, and 3′-primer (i.e. -[…]-3′). SELEX was repeated 3 times, following which amplified nucleotides were transformed into E. coli. PCR conditions for SELEX included 5 min 95° C./1 min 95° C./1 min 55° C./1 min 72° C./10 min 72° C. and 100 pmole of each primer.
Selected ssDNA molecules from each individual clone were biotinylated using the B-T3 which is same sequence with 5′ primer (T3 primer), and Klenow fragment (2 unit/ml). To prepare single stranded biotin conjugated CoocSeq5 aptamer for the reverse screening, T3 Primer was Biotin labelled. A 96-well flat bottom ELISA plate was prepared by coating each well with 100 μl of streptavidin (100 μg/ml) diluted in 0.1 M NaHCO3 following by a 37° C. overnight incubation. Following several washings with PBS, wells were blocked with 200 μl of PBS containing 1% BSA for 2 hours at room temperature and subsequent washing three times with PBS-T (10 mM PBS containing 0.05% (v/v) Tween-20). […]
High binding capacity ELISA plates (Immunoplate, Nunc) were coated with 100 μl allantoic fluid containing 500 TCID50 of various PRRS virus strains diluted in phosphate buffered saline (PBS) by incubating at 4° C. overnight. […] Following this incubation period, plates were washed five times in PBS-T and bound antibodies were detected using horseradish peroxidase labelled goat anti-mouse IgG conjugates (HRP). […] Reaction was terminated with 50 μl of 2M H2SO4, plates were read with a multichannel spectrophotometer at 570 nm.

[2] = tested on: LHVA-3 PRRS virus; experiment: MTT assay, in vitro protection of PAMs or MARC-145 cells from LHVA-3 infection; assay type: cell-based, PRRSV; settings: for protective effect when added after virus incubation: FIG. 9d
Protocol: PAMs or MARC-145 cells were plated in 96 well plates (7×10^4/well) one day prior to the assay. […] Following infection, cells were incubated in growth medium at 37° C. for 72 hours. MTT assay was performed by adding 4 mg/ml MTT (3-[4,5-Dimethylthiazol-2-yl]-2,5-diphenyltetrazolium bromide dissolved in PBS to the cell cultures and incubation at 37° C. for 3 hours. Plates were then centrifuged at 800×g for 10 min. Supernatants were aspirated and the formazan dye was dissolved in 150 μl/well of isopropyl alcohol, and O.D. values were determined with an ELISA reader at 570 nm.
In Vitro Viral Protection Prior to Viral Infection PAMs or MARC-145 cells were plated on 96 well plates (7×10^4/well) 24 hours prior to the experiment. Each well was washed twice with DPBS prior to treating the cells with various amounts of A505 (12.5 to 2000 pmole) at 37° C. for the indicated time points. […] Following incubation, cells were transferred to growth medium and incubated at 37° C. for 72 hours. Thereafter an MTT assay was implemented as described.
In Vitro Viral Protection Following Viral Infection—PAMs or MARC-145 cells were plated on 96 well plates (7×10^4/well) 24 hours prior to viral infection. Viral infection was effected as described above. Infected cells were gently washed with DPBS for 3 times. Cells were then treated with various amounts of A505 (12.5 to 2000 pmole) for 1 hour at 37° C. Following incubation, cells were transferred to growth medium and incubated at 37° C. for 72 hours. Thereafter an MTT assay was implemented as described.

B1: A505: ssDNA aptamer binding type 2 PRRSV M-S-S-GP5 complex (nucleic acid)
DNA: GGGCGACCCTGAAGAGTTTGTAATCTGCGATTTTAAAGTTGAGTCGTCGCGAAACGGTGAAAGCCGTAGGTTGCCC
modifications: DNA, backbone and methylation of C not given here
[1]
  binding to the M-S-S-GP5 complex/heterodimer: highly significant differences from the control ssDNA; also recorded: binding capacity to the M-S-S-GP5 complex; also recorded: found to bind the M-S-S-GP5 heterodimer
[2]; 500 pmole for 30 min or 60 min, repeated washing, then virus, FIG. 9c
  survival rate of cells pre-incubated with aptamer then washed before infection: no significant difference between the survival rate of non-treated and treated cells
[2]; 500 pmole, LHVA-3, compared to non-infected MARC-145 cells, FIG. 9b
  protection against infection of the cells: ~60%
[2]; 500 TCID50 LHVA-93-3 for 30 min prior to 500 pmole aptamer, vs infected cells
  protective effect when added after virus incubation: highly significant difference
[2]; 500 TCID50 LHVA-93-3 for 60 min prior to 500 pmole aptamer
  protective effect when added after virus incubation: not significant
[2]; cells treated with aptamer prior to viral infection, FIG. 9a
  virus-associated cell-death: significant reduction in virus-associated cell-death
